One substance from patent US12036234B2, “Heparin conjugated to collagen-binding peptides for targeting to biological and synthetic tissues” (Northwestern University, priority 2017, dated 2024) can be followed below.

Ends that are not written are not given here.

This experiment has as its target collagen IV (Mus musculus, UniProt P02463+P08122). In words: Cy5 conjugate binding to surface coated collagen IV. The note with it: 30 mg/ml, improved batch, 24 hour incubation. How it is done:
Heparin(Cy5)-CBP conjugates were synthesized using N-(3-dimethylaminopropyl)-N′-ethylcarbodiimide/N-hydroxyl succinimide (EDC/NHS) chemistry (1,2). Briefly, 1 mM of heparin sodium salt or fluorescently pre-conjugated Heparin(Cyanine5) (Hep-Cy5) mixed with 120 mM EDC and 60 mM NHS in 2-(N-morpholino) ethanesulfonic acid (MES) buffer at pH 6.5. This was rocked for 4 hours at 20° C. 1 mM of […] binding peptide (CQDSETRTFY (SEQ ID NO:1), CBP) or a scrambled sequence (CDEFQRSTTY (SEQ ID NO:2), CBPi) was added, and allowed to rock overnight at 4° C. This mixture was dialyzed to exclude molecules […] 3.5 kDa and lyophilized to dry. Four molecular assays were used to assess the functional synthesis of these conjugates. An Ellman's assay is capable of colormetrically labeling the thiol containing cysteine amino acid, and was used to assess the cysteine molar quantity of the whole conjugate (3). A dimethylmethylene blue assay was used to stain the glycosaminoglycan present in heparin conjugates to determine the heparin molar quantity (4). A colormetric kit was used to assess clotting via factor Xa (5). Effective CBP related binding of the conjugate was measured via the Cy5 fluorophore, using a 24 hour incubation with surface coated collagen IV (6). […]

Sequence of collagen IV (P02463 173-1669): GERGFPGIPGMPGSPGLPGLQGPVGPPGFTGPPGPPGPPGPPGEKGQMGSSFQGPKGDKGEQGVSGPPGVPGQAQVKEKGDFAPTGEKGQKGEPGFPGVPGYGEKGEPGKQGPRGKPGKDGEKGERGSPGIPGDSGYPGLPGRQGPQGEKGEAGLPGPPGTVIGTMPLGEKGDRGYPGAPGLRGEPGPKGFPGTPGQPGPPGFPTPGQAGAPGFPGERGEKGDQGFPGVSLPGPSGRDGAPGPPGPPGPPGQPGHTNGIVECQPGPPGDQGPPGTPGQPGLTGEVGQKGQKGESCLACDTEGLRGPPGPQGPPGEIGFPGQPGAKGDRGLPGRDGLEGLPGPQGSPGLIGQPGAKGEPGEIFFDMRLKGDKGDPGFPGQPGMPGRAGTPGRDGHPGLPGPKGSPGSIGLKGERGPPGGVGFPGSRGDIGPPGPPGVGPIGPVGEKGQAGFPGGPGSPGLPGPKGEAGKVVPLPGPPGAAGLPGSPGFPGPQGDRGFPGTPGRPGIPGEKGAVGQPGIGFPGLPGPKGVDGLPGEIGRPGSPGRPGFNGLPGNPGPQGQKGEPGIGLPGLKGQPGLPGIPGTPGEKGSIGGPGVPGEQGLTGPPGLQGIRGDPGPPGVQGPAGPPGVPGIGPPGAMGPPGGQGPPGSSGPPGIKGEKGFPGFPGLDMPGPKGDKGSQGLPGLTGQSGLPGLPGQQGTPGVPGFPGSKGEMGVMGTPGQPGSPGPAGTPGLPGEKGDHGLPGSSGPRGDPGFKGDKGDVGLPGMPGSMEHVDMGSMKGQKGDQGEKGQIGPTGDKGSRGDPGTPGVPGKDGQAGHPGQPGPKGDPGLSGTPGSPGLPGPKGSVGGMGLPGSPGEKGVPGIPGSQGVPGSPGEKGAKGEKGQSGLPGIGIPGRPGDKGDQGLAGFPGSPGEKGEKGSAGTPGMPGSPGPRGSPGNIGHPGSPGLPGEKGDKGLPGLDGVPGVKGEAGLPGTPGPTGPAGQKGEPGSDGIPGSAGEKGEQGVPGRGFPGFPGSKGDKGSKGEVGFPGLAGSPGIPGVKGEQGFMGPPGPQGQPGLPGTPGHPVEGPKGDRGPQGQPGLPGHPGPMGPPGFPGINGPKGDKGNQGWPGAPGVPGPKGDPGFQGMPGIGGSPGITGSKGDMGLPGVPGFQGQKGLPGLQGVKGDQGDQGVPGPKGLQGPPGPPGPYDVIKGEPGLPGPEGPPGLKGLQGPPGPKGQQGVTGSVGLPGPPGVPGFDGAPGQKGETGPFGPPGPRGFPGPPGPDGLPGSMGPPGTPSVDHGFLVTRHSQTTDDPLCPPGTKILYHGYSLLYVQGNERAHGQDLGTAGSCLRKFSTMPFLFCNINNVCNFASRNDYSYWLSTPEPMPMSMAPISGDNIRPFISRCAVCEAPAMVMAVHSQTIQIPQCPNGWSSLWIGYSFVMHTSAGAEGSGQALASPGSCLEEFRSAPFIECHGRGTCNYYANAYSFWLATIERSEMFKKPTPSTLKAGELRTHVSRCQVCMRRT
Sequence of collagen IV (P08122 184-1707): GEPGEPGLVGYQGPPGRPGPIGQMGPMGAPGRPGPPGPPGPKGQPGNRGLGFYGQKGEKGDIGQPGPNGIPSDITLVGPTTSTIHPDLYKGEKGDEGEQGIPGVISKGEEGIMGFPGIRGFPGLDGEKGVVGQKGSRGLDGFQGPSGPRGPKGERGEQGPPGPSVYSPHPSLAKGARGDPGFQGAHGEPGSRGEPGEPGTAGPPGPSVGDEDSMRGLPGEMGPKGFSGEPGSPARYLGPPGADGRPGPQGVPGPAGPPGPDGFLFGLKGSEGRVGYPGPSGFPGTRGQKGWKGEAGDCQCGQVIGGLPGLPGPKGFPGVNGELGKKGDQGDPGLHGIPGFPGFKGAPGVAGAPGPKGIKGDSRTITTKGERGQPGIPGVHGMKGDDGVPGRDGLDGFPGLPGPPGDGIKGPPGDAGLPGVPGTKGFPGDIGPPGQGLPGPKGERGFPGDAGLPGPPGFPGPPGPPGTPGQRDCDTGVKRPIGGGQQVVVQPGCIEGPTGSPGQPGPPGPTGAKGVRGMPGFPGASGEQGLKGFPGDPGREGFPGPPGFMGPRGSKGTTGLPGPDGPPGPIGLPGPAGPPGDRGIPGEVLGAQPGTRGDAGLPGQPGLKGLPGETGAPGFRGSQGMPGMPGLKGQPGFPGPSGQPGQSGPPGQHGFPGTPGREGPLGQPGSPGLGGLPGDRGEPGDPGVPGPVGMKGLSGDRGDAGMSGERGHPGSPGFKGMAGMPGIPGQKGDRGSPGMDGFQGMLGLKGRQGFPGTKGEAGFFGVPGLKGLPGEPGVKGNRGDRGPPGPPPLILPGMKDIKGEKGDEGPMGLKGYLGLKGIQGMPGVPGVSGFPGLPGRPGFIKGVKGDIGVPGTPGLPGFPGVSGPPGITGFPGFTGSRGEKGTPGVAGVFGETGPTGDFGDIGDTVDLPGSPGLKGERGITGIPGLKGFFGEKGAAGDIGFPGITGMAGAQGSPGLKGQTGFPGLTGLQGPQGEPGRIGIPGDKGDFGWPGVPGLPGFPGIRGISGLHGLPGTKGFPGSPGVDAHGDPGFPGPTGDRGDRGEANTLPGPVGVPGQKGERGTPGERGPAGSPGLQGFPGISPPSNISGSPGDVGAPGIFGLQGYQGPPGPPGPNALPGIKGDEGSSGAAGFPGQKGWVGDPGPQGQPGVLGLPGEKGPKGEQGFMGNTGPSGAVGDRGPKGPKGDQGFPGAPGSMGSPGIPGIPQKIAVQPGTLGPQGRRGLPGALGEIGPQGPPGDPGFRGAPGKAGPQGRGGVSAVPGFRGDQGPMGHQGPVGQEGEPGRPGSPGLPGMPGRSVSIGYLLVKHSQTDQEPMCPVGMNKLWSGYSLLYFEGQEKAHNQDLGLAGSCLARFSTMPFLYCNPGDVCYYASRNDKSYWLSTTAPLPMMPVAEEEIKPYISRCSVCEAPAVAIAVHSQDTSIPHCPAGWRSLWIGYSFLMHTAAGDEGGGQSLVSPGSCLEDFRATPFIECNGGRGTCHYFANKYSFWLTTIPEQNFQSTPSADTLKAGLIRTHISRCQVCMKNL

Turning to “CBP-Hep(Cy5): Cy5-labelled heparin conjugated with CBP by EDC/NHS chemistry (CQDSETRTFY; also: conjugated to Cy5-labelled heparin by EDC/NHS, place not given here)”, the “binding to collagen IV relative to scrambled CBPi control” value is “four times more”.
